# Measured values from patent US20160279079A1, “COMPOSITIONS AND METHODS FOR TREATING BONE DISEASES” (INDIANA UNIVERSITY RESEARCH AND TECHNOLOGY CORPORATION, priority 2013, published 2016).
# Key:
# [1] = test system: osteoclast-associated receptor (OSCAR); experiment: Quantitative real-time PCR, OSCAR mRNA in RAW264.7 cells; type: cell-based, mouse; details: day 2
# Experimental: (§1) METHOD EXAMPLE. Quantitative real-time PCR. Total RNA was extracted using an RNeasy Plus mini kit (Qiagen, Germantown, Md., USA). Reverse transcription was conducted with high capacity cDNA reverse transcription kits (Applied Biosystems, Carlsbad, Calif., USA), and quantitative real-time PCR was performed using ABI 7500 with Power SYBR green PCR master mix kits (Applied Biosystems). We evaluated mRNA levels of ATF4, Osteocalcin (OCN), NFATcl, c-Fos, tartrate-resistant acid phosphatase (TRAP), and osteoclast-associated receptor (OSCAR) with the PCR primers listed in Table 1. GAPDH was used for internal control. The relative mRNA abundance for the selected genes with respect to the level of GAPDH mRNA was expressed as a ratio of Streated/Scontrol, where Streated=mRNA level for the cells treated with chemical agents, and Scontrol=mRNA level for control cells.
# (§2) METHOD EXAMPLE. Partial suppression of mRNA levels of NFATcl, c-Fos, TRAP, and OSCAR by salubrinal. […] On day 2, for instance, the RANKL-driven increase was 9.4±0.5 fold (NFATcl), 1.9±0.1 fold (c-fos), 165±4.2 fold (TRAP), and 467±22 fold (OSCAR). The reduction by 20 μM salubrinal was 46% (NFATcl), 32% (c-fos), 35% (TRAP), and 21% (OSCAR) (FIG. 5A).
# (§3) METHOD EXAMPLE. Reduction of RANKL-induced NFATcl, c-Fos, TRAP, and OSCAR by guanabenz. […] The normalized level of “1” was defined as the level for the cells that were not treated with RANKL without administration of guanabenz.
# NFATc1 [2] = experiment: Western immunoblotting, NFATc1 expression in RAW264.7 cells; type: cell-based, mouse; details: 24 h
# Experimental: METHOD EXAMPLE. Downregulation of NFATcl in RAW264.7 cells by salubrinal. NFATcl is a transcription factor critical for activating osteoclastogenesis. […] The RANKL-induced expression of NFATcl was reduced by administration of 5-20 μM salubrinal on both days, and the effect of salubrinal was dose dependent (FIG. 4).
# as §3
# METHOD EXAMPLE. Western Immunoblotting. Cells were lysed in a radioimmunoprecipitation assay (RIPA) buffer containing protease inhibitors (Santa Cruz Biotechnology, Santa Cruz, Calif., USA) and phosphatase inhibitors (Calbiochem, Billerica, Mass., USA). Isolated proteins were fractionated using 10-15% SDS gels and electro-transferred to Immobilon-P membranes (Millipore, Billerica, Mass., USA). The membrane was incubated for 1 h with primary antibodies followed by 45 min incubation with goat anti-rabbit or anti-mouse IgG conjugated with horseradish peroxidase (Cell Signaling, Danvers, Mass., USA). We used antibodies against ATF4, NFATcl (Santa Cruz), p-eIF2α (Thermo Scientific, Waltham, Mass., USA), eIF2α, caspase 3, cleaved caspase 3, p38 and p-p38 mitogen activated protein kinase (MAPK), extracellular signal-regulated kinase (ERK) and p-ERK, nuclear factor kappa B (NFκB) p65 and p-NFκB p65 (Cell Signaling), and β-actin (Sigma). Protein levels were assayed using a SuperSignal west femto maximum sensitivity substrate (Thermo Scientific), and signal intensities were quantified with a luminescent image analyzer (LAS-3000, Fuji Film, Tokyo, Japan).
# METHOD EXAMPLE. Temporal profile of p-eIF2α and NFATcl. […] Note that the normalized level of “1” in FIG. 6C was defined as the level for the cells that were not treated with RANKL without administration of guanabenz.
# [3] = test system: RAW264.7 mouse pre-osteoclast (monocyte/macrophage) cells; experiment: Cell mortality and live cell numbers (trypan blue, hemacytometer); type: cell-based; details: incubation with RANKL (20 ng/ml), 24 h
# Experimental: METHOD EXAMPLE. Cell culture. MC3T3 E1 mouse osteoblast-like cells (clone 14—MC3T3 E1-14; and no clonal cells in supplementary figures), and RAW264.7 mouse pre-osteoclast (monocyte/macrophage) cells were cultured in αMEM containing 10% fetal bovine serum and antibiotics (50 units/ml penicillin, and 50 μg/ml streptomycin; Life Technologies, Grand Island, N.Y., USA). Cells were maintained at 37° C. and 5% CO2 in a humidified incubator. Cell mortality and live cell numbers were determined 24 h after the treatment with 20 ng/ml RANKL (PeproTech, Rocky Hills, N.C., USA) in response to 0.1-20 μM salubrinal or 1-20 μM guanabenz acetate (Tocris Bioscience, Ellisville, Mo., USA). Cells were stained with trypan blue and the numbers of live and dead cells were counted using a hemacytometer.
# METHOD EXAMPLE. Inhibition of osteoclastogenesis of RAW264.7 cells by salubrinal. The primary aim of this study is to evaluate the effects of salubrinal on osteoclastogenesis. In response to 0.1-20 μM salubrinal for 24 h, cell mortality and live cell numbers of RAW264.7 pre-osteoclasts was examined. […] The number of live cells was increased by ˜50% by incubation with RANKL, and administration of 10-20 μM salubrinal reduced the numbers approximately by 10% (FIG. 3B).
# METHOD EXAMPLE. Inhibitory effects of guanabenz on osteoclastogenesis of RAW264.7 cells. To further examine a potential involvement of p-eIF2α in regulation of osteoclastogenesis, we employed guanabenz that also acts as an inhibitor of de-phosphorylation of eIF2α was evaluated. […] Compared to the number of TRAP-positive multi-nucleated cells of 377 39 (RANKL only), guanabenz reduced the number of differentiated osteoclasts to 364±38 (1 μM), 288±51 (5 μM), 189±25 (10 μM), and 73±16 (20 μM).
# [4] = test system: tartrate-resistant acid phosphatase (TRAP); experiment: Quantitative real-time PCR, TRAP mRNA in RAW264.7 cells; type: cell-based, mouse; details: day 2
# Experimental: as §1, §2, §3
# NFATc1 [5] = experiment: Quantitative real-time PCR, NFATc1 mRNA in RAW264.7 cells; type: cell-based, mouse; details: day 2
# Experimental: as §1, §2, §3
# c-Fos = experiment: Quantitative real-time PCR, c-Fos mRNA in RAW264.7 cells; type: cell-based, mouse; details: day 2
# Experimental: as §1, §2, §3
molecule,measurement,setting,value
"RANKL: cytokine belonging to the tumor necrosis factor family; stimulus for osteoclast differentiation (PeproTech) (protein, UniProt O14788 140-317, looked up) Tumor necrosis factor ligand …: IRAEKAMVDGSWLDLAKRSKLEAQPFAHLTINATDIPSGSHKVSLSSWYHDRGWAKISNMTFSNGKLIVNQDGFYYLYANICFRHHETSGDLATEYLQLMVYVTKTSIKIPSSHTLMKGGSTKYWSGNSEFHFYSINVGGFFKLRSGEEISIEVSNPSLLDPDQDATYFGAFKVRDID",RANKL-driven increase of OSCAR mRNA level,[1],467±22 fold
same,elevation of NFATc1 by addition of RANKL,NFATc1 [2],13.4±3.2 fold
same,increase of the number of live cells,[3],~50%
same,RANKL-driven increase of TRAP mRNA level,[4],165±4.2 fold
same,RANKL-driven increase of NFATc1 mRNA level,NFATc1 [5],9.4±0.5 fold
same,RANKL-driven increase of c-fos mRNA level,c-Fos,1.9±0.1 fold
